Assay results published in a protein production outcome set (Wang et al. 2014).

Experiment: label from the status in PepcDB records

Sequence	protein production
MITTTIFPGRYVQGAGAINILEEELSRFGERAFVVIDDFVDKNVLGENFFSSFTKVRVNKQIFGGECSDEEIERLSGLVEEETDVVVGIGGGKTLDTAKAVAYKLKKPVVIVPTIASTDAPCSALSVIYTPNGEFKRYLFLPRNPDVVLVDTEIVAKAPARFLVAGMGDALATWFEAESCKQKYAPNMTGRLGSMTAYALARLCYETLLEYGVLAKRSVEEKSVTPALEKIVEANTLLSGLGFESGGLAAAHAIHNGLTVLENTHKYLHGEKVAIGVLASLFLTDKPRKMIEEVYSFCEEVGLPTTLAEIGLDGVSDEDLMKVAEKACDKNETIHNEPQPVTSKDVFFALKAADRYGRMRKNLT	not failed
MKTKIIGVLGLGIFGQTLAQELSNFEQDVIAIDSNPENVQAVAEVVTKAAIGDITDLAFLKHIGISDCDTVIIATGNSLESSVLAVMHCKKLGVPQVIAKARNLVYEEVLYEIGADLVISPERESGQNVAANLMRNKITDVFQIESDISVIEFKIPKSWVGKTVEQLNIRHKFDLNLIGIRKAKNKPVDTEVPINSPLEEGIILVAIANSDAFQRYDYLGYFNLEHHHHHH	not failed
MSGILALGAYVPERVMTNADFEAYLDTSDEWIVTRTGIKERRVAAEDEYTSDLAFKAVEDLLRRHPGALEGVDAVIVATNTPDALFPDTAALVQARFGLKAFAYDLLAGCPGWIYALAQAHALVEAGLAQKVLAVGAEALSKIIDWNDRATAVLFGDGGGAAVVGKVREGYGFRSFVLGADGTGAKELYHACVAPRLPDGTSMKNRLYMNGREVFKFAVRVMNTATLEAIEKAGLTPEDIRLFVPHQANLRIIDAARERLGLPWERVAVNVDRYGNTSTASIPLALKEALDAGRIREGDHVLLVSFGAGLTWAAAVLTWGGA	not failed
MMVISEKVRKALNDQLNREIYSSYLYLSMATYFDAEGFKGFAHWMKKQAQEELTHAMKFYEYIYERGGRVELEAIEKPPSNWNGIKDAFEAALKHEEFVTQSIYNILELASEEKDHATVSFLKWFVDEQVEEEDQVREILDLLEKANGQMSVIFQLDRYLGQRE	not failed
MDDYSLDEFRRRWQEELAQAQAPKKRRRPEAAERRARRPEVGSGRSEQASGDPALAQGLLEGAGRPPAARATRAEGQDVASRSRSPLAREGAGGGEQLVDQLIRDLNEMNDVPFFDIQLPYELAINIFQYLDRKELGRCAQVSKTWKVIAEDEVLWYRLCQQEGHLPDSSISDYSCWKLIFQECRAKEHMLQTNWKNRKGAVSELEHVPDTVLCDVHSHDGVVIAGYTSGDVRVWDTRTWDYVAPFLESEDEEDEPGMQPNVSFVRINSSLAVAAYEDGFLNIWDLRTGKYPVHRFEHDARIQALALSQDDATVATASAFDVVMLSPNEEGYWQIAAEFEVPKLVQYLEIVPETRRYPVAVAAAGDLMYLLKAEDSARTILYAHGPPVTCLDVSANQVAFGVQGLGWVYEGSKILVYSLEAGRRLLKLGNVLRDFTCVNLSDSPPNLMVSGNMDGRVRIHDLRSGNIALSLSAHQLRVSAVQMDDWKIVSGGEEGLVSVWDYRMNQKLWEVYSGHPVQHISFSSHSLITANVPYQTVMRNADLDSFTTHRRHRGLIRAYEFAVDQLAFQSPLPVCRSSCDAMATHYYDLALAFPYNHV	failed
KSPGWMKHLDQEQAVHSESETYGISSWVYSARLPFHPQRFQHFLAHPWTNGTLLRCKGYIWNAKCYQDIGMLVQTGGQFEWEIVGRWWNFINQSDWPQDHYRRDSIFEKWDERTGDCRQEIVFIGQNIDWNTLKHQLDDCLLTLQEIEDGPEAWLNY	failed
MIITIPIKNQKDIGTPSDSVVVLGYFDGIHKGHQELFRVANKAARKDLLPIVVMTFNESPKIALEPYHPDLFLHILNPAERERKLKREGVEELYLLDFSSQFASLTAQEFFATYIKAMNAKIIVAGFDYTFGSDKKTAEDLKNYFDGEVIIVPPVEDEKGKISSTRIRQAILDGNVKEAGKLLGAPLPSRGMVVHGNARGRTIGYPTANLVLLDRTYMPADGVYVVDVEIQRQKYRAMASVGKNVTFDGEEARFEVNIFDFNQDIYGETVMVYWLDRIRDMTKFDSVDQLVDQLKADEEVTRNWS	not failed
MKWPWWPVCVPLSKRLTLPLPSTANPVVQPSRLALACANRLFEAADNRERFLQALMTPPAYPATVLWCGEPAAALPFAALPPLPWQPPWVSRFVAGSPTGQHPLHAAGAYYCLDSSSVFAAVPLLTLPQEPSLVIDVCAAPGGKSLFAWRSLHPRYLICNETIGKRVGKLIGNLKRCRVHPVGVTSWDSEVLAAEFQGTADVVIVDAPCSGQSLLAKGQKAEGCFHPLTIRHNQRRQKRILAAATTLVRPGGWLLYSTCTFSQDENEDVAAWLMAKFPHLLPQPVPALAAYQSHLAAFPCYRLWPHQGEGAGAFTILWQHQGLEHHHHHH	not failed
